Test results as given in US11858972B2, “Micropeptides and uses thereof” (FUNDACIÓ PRIVADA INSTITUT D'INVESTIGACIÓ ONCOLÒGICA DE VALL …, priority 2018, dated 2024).

Columns and labels:
[1] = system: A549 cells; experiment: Cell cycle analysis by flow cytometry; format: cell-based, human
Text: (§1) FIG. 8. SEQ ID NO: 1 overexpression reduces cell proliferation. A549 and H10 cells were transduced with an inducible lentivirus coding HA-SEQ ID NO: 1. SEQ ID NO: 1 expression was induced by doxycycline treatment for 14 days. (A) Growth curve of transduced cells over 14 days of SEQ ID NO:1 expression. (B) Cell cycle analysis by flow cytometry. Left, histogram plots. Right, quantification of the number of cells in every cell cycle phase. Graphs show the mean±SD, using at least 3 technical replicates. **** P<0.0001, two-tailed t-test.
(§2) Micropeptide of SEQ ID NO: 1 expression was induced in BxPC3 cells by treatment with doxycycline (2 μg/ml) for 4 days. Cells were fixed using 100% ethanol at 4° C., stained with Propidium Iodide, and cell cycle was analysed by flow cytometry (LSR-Fortessa cytometer). Cell viability in micropeptide of SEQ ID NO: 1-expressing cells was evaluated using CellTiter-Glo 2.0 (Promega) following manufacturer's instructions.

[2] = system: squamous cell carcinoma cell line H10; experiment: Cell proliferation assay (growth curve, 14 days); format: cell-based; settings: H10, monitored for 14 days, vs control vector
Text: as §1
(§3) A549 and H10 cell lines were dissociated by trypsin digestion and seeded into 24-well cell culture plates at density 5×10^3 cells/well. Every two days, cells were dissociated from wells and counted using a Neubauer chamber. Cell growth curves were monitored for 14 days.

[3] = system: BxPC-3 cells; experiment: Drug sensitivity assay, cell viability by crystal violet; format: cell-based; parameters: cell death induced by Doxorubicin: dose or concentration left out as unconfirmed; settings: days 2 to 4
Description: FIG. 6. Micropeptide of sequence SEQ ID NO: 1 expression induces cell death upon cellularstress. SkBR-3, HPAF II, MIA PaCa-2 and BxPC-3 cells were infected with empty or SEQ ID NO: 1-HA retroviruses, and selected by puromycin. Micropeptide of sequence SEQ ID NO: 1 expression was analyzed by qPCR (A) and by Western blot (B). (C) Phase contrast images of the indicated cells 3 days after selection with puromycin. […] (E) BXPC-3 cells were infected with an inducible lentivirus encoding SEQ ID NO: 1-HA, and selected with Neomycin. Micropeptide of sequence SEQ ID NO: 1 expression was induced by doxycycline, and cells were treated with Doxorubicin or Actinomycin D. (E) Cell viability of the indicated cells measured by crystal violet staining. For drug sensitivity assays, doxycycline induction was coupled with Doxorubicin ([…]) or Actinomycin D (5 nM) (from days 2 to 4), and cell viability was measured by staining with crystal violet.

[4] = system: BxPC-3 pancreatic cancer cell line; experiment: Cell viability by CellTiter-Glo after doxycycline-induced expression; format: cell-based; settings: BxPC-3, expression induced by doxycycline for 4 days
Text: FIG. 5. Micropeptide of sequence SEQ ID NO: 1 overexpression induces cell cycle arrest and cellular senescence. BxPC-3 cells were transduced with an inducible lentivirus coding HA-SEQ ID NO: 1. Micropeptide of sequence SEQ ID NO: 1 expression was induced by doxycycline treatment for 4 days. (A) Phase contrast images of SEQ ID NO:1-expressing cells and control cells. (B) Cell viability analysis by CellTiter-Glo assay. (C) Cell cycle analysis by flow cytometry. Left, histogram plots. Right, quantification of the number of cells in every cell cycle phase (D) Analysis of p27 and p21 expression by qPCR. (E) Western Blot of the indicated cells using anti-HA and anti-p21 antibodies. (F) Quantification of the number of SA-β-Gal positive cells in doxycycline-treated and untreated cells. (G) Representative pictures of the cell quantified in (F). Graphs show the mean±SEM, using at least 3 technical replicates. **P<0.01 ***P<0,001 **** P<0.0001, two-tailed t-test.
as §2

[5] = system: BxPC-3 infected cells; experiment: Annexin V/PI assay; format: cell-based; settings: BxPC-3, SEQ ID NO: 1-Puromycin conditions
Description: (§4) FIG. 6. Micropeptide of sequence SEQ ID NO: 1 expression induces cell death upon cellularstress. SkBR-3, HPAF II, MIA PaCa-2 and BxPC-3 cells were infected with empty or SEQ ID NO: 1-HA retroviruses, and selected by puromycin. Micropeptide of sequence SEQ ID NO: 1 expression was analyzed by qPCR (A) and by Western blot (B). (C) Phase contrast images of the indicated cells 3 days after selection with puromycin. (D) Annexin-V/PI staining of BxPC-3 infected cells with and without puromycin treatment, analyzed by Flow Cytrometry. (E) BXPC-3 cells were infected with an inducible lentivirus encoding SEQ ID NO: 1-HA, and selected with Neomycin. Micropeptide of sequence SEQ ID NO: 1 expression was induced by doxycycline, and cells were treated with Doxorubicin or Actinomycin D. (E) Cell viability of the indicated cells measured by crystal violet staining.
After lentiviral infection and puromycin selection for 72 h, infected cells were washed twice with cold PBS and resuspended in Binding Buffer at a cell density of 1×10^6 cells/mL. Following manufacturer's instructions (BD Pharmingen™) 100 μL of cells were treated with 5 μL of Annexin V-FITC. After incubation for 15 min in the dark at room temperature, 400 ul of Binding Buffer was added and each sample was supplemented with 10 μL of Propidium Iodide. Flow cytometry analysis was performed on a LSR Fortessa cytometer.

[6] = system: SkBR-3, HPAF II, MIA PaCa-2 and BxPC-3 cells; experiment: Cell death upon puromycin selection stress (phase contrast images); format: cell-based; settings: Puromycin selection of infected cells, pMSCV non-inducible vector; several pancreatic and breast cancer cell lines
Description: as §4, with “(D) Annexin-V/PI staining of BxPC-3 infected cells with and without puromycin treatment, analyzed by Flow Cytrometry.” left out

[7] = system: Lung cancer cell line A549; experiment: Cell proliferation assay (growth curve, 14 days); format: cell-based, human; settings: A549, monitored for 14 days, vs control vector
Text: as §1, §3

B1: SEQ ID NO: 1: highly conserved 87 aa micropeptide coded by the lncRNA TINCR; predicted ubiquitin-like protein (protein, listed as Homo sapiens)
chain: MEGLRRGLSRWKRYHIKVHLADEALLLPLTVRPRDTLSDLRAQLVGQGVSSWKRAFYYNARRLDDHQTVRDARLQDGSVLLLVSDPR
cells arrested in G1 phase [1]: increase in cells arrested in G1 phase | growth rate [2]: consistently lower growth rate | cell death induced by Actinomycin D ([3]; BxPC-3, doxycycline induction coupled with Actinomycin D (5 nM)): sensitizes to cell death | cell death induced by Doxorubicin ([3]; BxPC-3, doxycycline induction coupled with Doxorubicin): sensitizes to cell death | cell proliferation [4]: significantly reduces cell proliferation | percentage of early apoptotic cells [5]: 22.4% | percentage of late apoptotic cells [5]: 58.6% | cell death when coupled with cellular stress [6]: extensive cell death | growth rate [7]: consistently lower growth rate
